Values quoted from earlier work in article PMC9377792.

Molecular target: uPAR (Homo sapiens) (UniProt Q03405)
Chain of UniProt Q03405 (Q03405 23-305): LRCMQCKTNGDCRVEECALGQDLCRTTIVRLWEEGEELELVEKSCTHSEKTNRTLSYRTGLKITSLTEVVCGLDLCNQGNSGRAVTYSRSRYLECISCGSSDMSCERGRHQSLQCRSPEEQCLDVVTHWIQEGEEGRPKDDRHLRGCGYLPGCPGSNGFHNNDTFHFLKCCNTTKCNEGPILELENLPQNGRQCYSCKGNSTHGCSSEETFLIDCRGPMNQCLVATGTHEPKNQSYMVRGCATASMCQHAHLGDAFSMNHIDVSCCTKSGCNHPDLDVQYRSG

Question: With Factor XII (from UniProt P00748) as the substance, how does the Kd read?
Answer: 37.1 nM
